Each binder was assayed against T1, biotinylated B Lymphocyte Stimulator, soluble form (human, UniProt Q9Y275 134-285, biotinylated with NHS-biotin, molar ratio 20:1 biotin:protein) (assay: phage scFv, receptor binding inhibition on IM9 cells).
T1 construct: also called bio-B Lymphocyte Stimulator; free B Lymphocyte Stimulator
Method: All of the unique phage scFvs from panel 2 were assessed for their ability to inhibit B Lymphocyte Stimulator binding to its cognate receptor on IM9 cells. The biotinylation of B Lymphocyte Stimulator, maintenance of IM9 cells and receptor binding inhibition assay were performed as described in Example 3.

| Binder | binding result |
| --- | --- |
| I075G01 (scFv) scFv: QVQLVQSGAEVKKPGASVKVSCKTSGYTFTGYNINWVRQAPGQGLEWMGWVSPSNGDTSYAQTFQGRVTMTRDTSISTAYMELSSLKSDDTAVYYCARDHFDTLTGYFRRLDSWGQGTLVTVSSGGGGSGGGGSGGGGSALSSELTQDPEVSVALGQTVTITCQGDSLITHYASWFQQKPGQAPLLVFYSKDKRPSGIPDRFSGSYSGNTASLTITGAQAEDEADYYCNSRDSRGKNHVAFGGGTKLTVLG | binds |
| I068B04 (scFv) scFv: QVQLVQSGAEVKKPGSSVKVSCKASGGTVSSRTISWVRQAPGQGLEWMGGSLPPSGAPIYAQKFQGRVAITADALTNTAFMELRSLKSDDTAVYYCARDQGRYLDLWGRGTLVTVSSGGGGSGGGGSGGGGSALPVLTQPPSASATPGQRVTISCSGSSSNIGSNYVYWYQQLPGTAPKVLIYRNNQRPSGVPDRFSGSRSGTSASLAISGLRSEDEADYYCATWDDSLSGPVFGGGTKVTVLG | binds |
| I026C04-R (scFv) scFv: QVQLVQSGAEVKKPGSSVKVSCRASGGSFNRHAISWVRQAPGRGLEWMGGILPMYGTANYAQKFQGRVTITADKLTNTVYMDLSRLRYEDTAVYYCARELGLSIVGATTGALDMWGKGTLVTVSSGGGGSGGGGSGGGGSAQSVLTQPPSVSAAPGQKVTISCSGSSSNIGNNYVSWYQQIPGTAPKLLIYENNKRPSGIPDRFSGSKSGASATLDITGLQTGDEADYYCGTWHSSQVVFGGGTKLTVLG | binds |
| I064C07 (scFv) scFv: QVQLVQSGAEVKKPGSSVKVSCKASGGTFSSYAISWVRQAPGQGLEWMGGIIPIFGTANYAQKFQGRVTITADDLTRTAYMEMSSLKFEDTAVYYCASSEGTIFGVDWGRGTLVTVSSGGGGSGGGGSGGGGSDIQMTQSPSFLSASVGDRVTITCRASQGINNYLAWYQQKPGRAPKLLMYAASSLQSGVPSRFSGSGSGTDFTLTISSLQPEDFATYYCLQDSDYPLTFGGGTKLEIKR | binds |
| I067B10 (scFv) scFv: QMQLVQSGAEVKKPGASVKVSCKASGYTFTSYYMHWVRQAPGQGLEWMGWINAGNSNTKYSQKFQGRVTITSDTSASTAYMELSGLRSEDTAVYYCARDRGAPNYDILTGYYAPAQGVAFDIWGKGTLATVSSGGGGSGGGGSGGGGSQSVLTQPPSVSAAPGQKVTISCSGSTSNIGNNYVSWYQQHPGKAPKLMIYDVSKRPSGVPDRFSGSKSGNSASLDISGLQSEDEADYYCAAWDDSLSEFLFGTGTKLTVLG | binds |
| I030A10 (scFv) scFv: QVQLVQSGAEVKKPGSSVKVSCRASGGSFNHAISWVRQAPGRGLEWMGGILPMYGTANYAQKFQGRVTITADKLTNTVYMDLSRLRYEDTAVYYCARELGLSIVGATTGALDMWGRGTLVTVSSGGGGSGGGGSGGGGSAQAVLTQPSSVSGAPGQRVIISCTGSSSNIGPDYDVHWYQQLPGTAPKLLIYGNNNRPSGVPDRFSGSKSGTSASLAITGLQAEDEAHYYCQSYGSSLSGVVFGGGTKVTVLG | binds |
| I065F08 (scFv) scFv: QVQLQQSGAEVKKPGSSVKVSCKASGDTFSSFGISWVRQVPGQGLEWMGAIIPKFDIVTYAEEFKGRVTISADKLTNTAYMEVKSLRSEDTAVYYCTREKSAAGYFDYWGKGTLVTVSSGGGGSGGGGSGGGGSDIVMTQSPSTLSASVGDRVTITCRASQGISSWLAWYQQKPGRAPKVLIYKASTLESGVPSRFSGSGSGTDFTLTISSLQPEDFATYYCQQSYSTPWTFGQGTKLEIKR | binds |
| I067F05 (scFv) scFv: QVQLQQSGAEVKKPGSSVKVSCKASGGTFSSYAISWVRQAPGQGLEWMGRIIPIVNMANYAQKFQGRVTLTADKSTGTAYMELTSLRSEDTAVYYCARENYDSLTGYYGAFDIWGKGTMVTVSSGGGGSGGGGSGGGGSQSVLTQPASVSGSPGQSITISCTGTSSDVGGYNYVSWYQQHPGKAPKLMIYEGSKRPSGVSNRFSGSKSGNTASLTISGLQAEDEADYYCSSYTTRSTRVFGGGTKLTVLG | binds |
| I069B07 (scFv) scFv: QVQLVQSGAEVKKPGASVKVSCKASGYTFTSYGISWVRQAPGQGLEWMGWISAYNGNTNYAQKLQGRVTMTTDTSTSTAYMELRSLRSEDTAVYYCARMEYDILTGYYGGYFDYWGQGTMVTVSSGGGGSGGGGSGGGGSQSVLTQPASVSGSPGQSITISCTGTSSDVGGYNYVSWYQQHPGKAPKLMIYEGSKRPSGVSNRFSGSKSGNTASLTISGLQAEDEADYYCSSYTTRSTRVFGGGTKLTVLG | binds |
| I002A01-R (scFv) scFv: QVQLVQSGAEVKKPGSSVKVSCRASGGSFNRHAISWVRQAPGRGLEWMGGILPMYGTANYAQKFQGRVTITADKLTNTVYMDLSRLRYEDTAVYYCARELGLSIVGATTGALDMWGKGTLVTVSSGGGGSGGGGSGGGGSALPVLTQPPSVSVAPGQTATLTCGGTNFGRQSVHWYQQKPGQAPVLAIYHDDVRPSGIPERLSGSKSGNTATLTISRVEAGDEAAYYCQVWDSGSDVVVFGGGTKLTVLG | binds |
| I002A01-K (scFv) scFv: QVQLVQSGAEVKKPGSSVKVSCRASGGSFNKHAISWVRQAPGRGLEWMGGILPMYGTANYAQKFQGRVTITADKLTNTVYMDLSRLRYEDTAVYYCARELGLSIVGATTGALDMWGKGTLVTVSSGGGGSGGGGSGGGGSALPVLTQPPSVSVAPGQTATLTCGGTNFGRQSVHWYQQKPGQAPVLAIYHDDVRPSGIPERLSGSKSGNTATLTISRVEAGDEAAYYCQVWDSGSDVVVFGGGTKLTVLG | binds |
| I072B09 (scFv) scFv: QVQLQQSGAEVKKPGASVKVSCRASGYTFTKYTMHWVRQAPGQGPEWMGWINGGSGDTKYSRKFQGRVTITKDTSASAAYMELSSLGSEDTALYYCARATYDPLTGYSFDGFDIWGQGTLVTVSSGGGGSGGGGSGGGGSSELTQDPAVSVALGQTVRITCQGDSLRSYYTNWFQQKPGQAPLLVVYAKNKRPSGIPDRFSGSSSGNTASLTITGAQAEDEADYYCNSRDSSGNHVVFGGGTKLTVLD | binds |
| I064C04 (scFv) scFv: QVQLVQSGAEVKKPGASVKVSCEASGYTFTSYGISWVRQAPGQGLEWMGWISTYNGNTRYPQKLQGRVTMTTDTSTSTAYMDLRSLRSDDTAVYYCARDGRLSYDILTGYYARDYYGMDDWGRGTMVTVSSGGGGSGGGGSGGGGSQSVLTQPASVSGSPGQSITISCTGTSSDVGGYNYVSWYQQHPGKAPKLMIYEGSKRPSGVSNRFSGSKSGNTASLTISGLQAEDEADYYCSSYTTRSTRVFGGGTKLTVLG | binds |
| I075F12 (scFv) scFv: QVQLVQSGAEVKKPGSSVKVSCKASGGTVSSRTISWVRQAPGQGLEWMGGSLPPSGAPIYAQKFQGRVAITADALTNTAFMELRSLKSDDTAVYYCARDQGRYLDLWGQGTMVTVSSGGGGSGGGGSGGGGSAQAVLTQPSSASGTPGQRATISCSGSSSDIGINAVNWYKQLPRTAPKLLIYRNNQRPSGVPDRFSGSKSGTSASLAIIGLQSEDEADYYCATWDDSLTAYVFGTGTKVTVLG | binds |
| I065D08 (scFv) scFv: GVQLVQSGAEVKKPGASVKVSCKASGYTFTSYGISWVRQAPGQGLEWMGWISAYNGNTNYAQKLQGRVTMTTDTSTSTAYMELRSLRSDDTAVYYCARTPSSVYDLLTGYYHYFYSYMDVWGRGTMVTVSSGGGGSGGGGSGGGGSQSVLTQPASVSGSPGQSITISCTGTSSDVGGYNYVSWYQQHPGEAPKLMIYEGSKRPSGVSNRFSGSKSGNTASLTISGLQAEDEADYYCSSYTTRSTRVFGGGTKLTVLG | binds |

The binders below were run against T2, HIS-tagged B Lymphocyte Stimulator (human, UniProt Q9Y275 71-285) (assay: BIAcore, periplasmic scFv over high density HIS-BLyS surface).
T2 construct: Expressed in E. coli; also called HIS-B Lymphocyte Stimulator; histidine-tagged B Lymphocyte Stimulator; not shown: histidine tag from the pQE9 vector
Method: All BIAcore analysis was performed on BIAcore 2000 machines, using the BIAcore 2000 control software and evaluated using the BIAevaluation 3.0 software. A high density His-tagged B Lymphocyte Stimulator surface (>1000 RU HIS-B Lymphocyte Stimulator coupled) was prepared in flow cell 2 by amine coupling to a CM5 chip. A new CM5 chip was inserted into the BIAcore and a sensorgram started over flow cell 2 with HBS buffer at a flow rate of 5 μl/min. The NHS and EDC solution were mixed 1:1 before injecting 30 μl over the CM5 surface. Fifty μl HIS-B Lymphocyte Stimulator (at 10 μg/ml in Sodium acetate buffer, pH4) was injected and allowed to couple to the surface. Thirty μl of ethanolamine-HCl solution was then injected to block free NHS esters. Prior to using the chip, 10 μl of 4M Guanidine hydrochloride in HBS was injected over the surface to strip the surface of non-covalently bound B Lymphocyte Stimulator. A blank surface (no HIS-B Lymphocyte Stimulator) was also prepared over flow cell 1 so that non-specific binding effects can be subtracted from the HIS-B Lymphocyte Stimulator binding curves.
The 96-well plate containing periplasmic scFvs was secured inside the BIAcore. Two ml of 4M Guanidine hydrochloride in HBS was placed in a rack inside the BIAcore for regeneration of the HIS-B Lymphocyte Stimulator surface between samples. The sensorgram was run over flow cells 1 and 2 at a flow rate of […].

| Binder | binding result |
| --- | --- |
| I079C01 (scFv) scFv: EVQLVESGGGLVQPGGSLRLSCAASGFTFSDYGMHWVRQRPGKGLEWIAFIGSDGSNKYYGDTVKGRFTISRDNAKNSLYLQMNSLRAEGTAVYYCARDWDMDVWGQGTMVTVSSGGGGSGGGGSGGGGSHVILTQPRSVSGSPGQSVTISCTGTSSDVGGYHYVSWYQQHPGKAPRLMIYEVTKRPSGVSNRFSGSKSGNTASLTISGVQAEDEADYYCSSYTSASTVIFGGGTKLTVLG | binds |
| I084C04 (scFv) scFv: VQLVQSGAEVKKPGASVKVSCKASGYTFTSYGISWVRQAPGQGLEWMGWINPNSGGTNYAQKFQGRVTMTRDTSISTAYMELSRLRSDDTAVYYCARNLWGLDYWGKGTMVTVSSGGGGSGGGGSGGGGSSELTQDPAVSVALGQTVRITCQGDSLRSYYASWYQQKPGQAPVLVIYGKNNRPSGIPDRFSGSSSGNTASLTITGAQAEDEADYYCNSRDSSGNHVVFGGGTKLTVLG | binds |

Reference: US20110293610A1 (published 2011)
